Experimental data as given in patent publication US20240026407A1, “MODIFICATION OF SAPONINS” (GLAXOSMITHKLINE BIOLOGICALS SA, priority 2020, published 2024).

Assays:
Format in all cases: biochemical, Quillaja saponaria
[1] = Experiment 4-2: screening of glucosidases for deglycosylation with purified QS-18 (1 mg/ml) at pH 6 and 30 deg C; settings: pH 6, 30 degC, 18 hrs, clarified lysate, LCMS/MS
Outline: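 Enzyme activity derived from LC-MS/MS analysis after MeCN quench. Substrate QS-18 (1 mg/ml final) was exposed overnight (18 h, 30 °C, pH 6 phosphate buffer) to clarified lysates containing candidate glucosidases.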

[2] = Experiment 4-4: screening of glucosidases for deglycosylation of QS-18 in crude bark extract (1 in 20 dilution) to QS-21; settings: CBE 1 in 20 dilution, pH 6, 25 degC, 18 hours; % conversion of Middle Peak by UV HPLC
Outline: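 Clarified glucosidase lysates were incubated with pH 6 crude bark extract (1 in 20) in potassium phosphate buffer pH 6 for 18 h at 25 °C with shaking, then quenched with MeCN. UV HPLC with MS/MS-supported peak identity; activity is % conversion of the extract's Middle Peak (QS-18 family) toward the QS-21 peak.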

[3] = Experiment 4-1: screening of glucosidases for deglycosylation with purified QS-18 (0.04 mg/ml) at pH 7.5 and room temperature; settings: pH 7.5, room temperature, 20 h, clarified E. coli lysate, QS-18 2150 to QS-21 1988 by LCMS/MS
Outline: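 Deglycosylation measured by LC-MS/MS as % conversion after 20 h room-temperature incubation of QS-18 phenyl fraction (0.04 mg/ml final) with polymyxin B/lysozyme lysates, pH 7.5 phosphate, of E. coli BL21(DE3) expressing each enzyme; MeCN quench. Positives exceeded negative control by >3 S.D.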

[4] = Experiment 4-3: screening of glucosidases for deglycosylation with QS-18 in crude bark extract (1 in 2000 dilution) at pH 7 and 30 deg C; settings: CBE 1 in 2000 dilution, pH 7, 30 degC, 1 h; % conversion of QS-18 by LCMS/MS
[5] = Experiment 5-3: screening of additional glucosidases for deglycosylation with QS-18 in treated bark extract (80%) at pH 6 and 35 deg C; settings: TBE 80% (QS-21 approx. 4 g/L), pH 6, 35 deg C; UV HPLC
Protocol: Experiment 5-1 was repeated, replacing CBE with Treated Bark Extract (TBE) at pH 6. TBE was prepared from CBE by PVPP treatment and concentration, to provide TBE with a QS-21 concentration of approximately 4 g/L. TBE was adjusted to pH 6 by dropwise addition of 2M NaOH with stirring.

[6] = Experiment 5-1: screening of additional glucosidases for deglycosylation with purified QS-18 (0.04 mg/ml) at pH 7.5 and 30 deg C; settings: pH 7.5, 30 degrees C, 18 hours, LCMS/MS
Protocol: The 94 additional genes, together with positive control (DNA encoding SEQ ID No. 262) and negative control, were transformed, expressed, lysed and reacted in the same manner as described above for Experiment 4-1, except the reaction was incubated at 30 degrees C. for 18 hours.
Samples were analysed by LCMS/MS according to the procedure in Experiment 4-1.

[7] = Experiment 5-2: screening of additional glucosidases for deglycosylation with QS-18 in crude bark extract (80%) at pH 6 and 35 deg C; settings: CBE 80%, pH 6, 35 deg C, 18 hours; UV HPLC
Outline: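 Deglycosylation of QS-18 was monitored by UV HPLC after MeCN/AcOH quench with hexanophenone. The reaction ran 18 hours at 35 deg C, shaking, combining clarified pH 6 lysate with crude bark extract neutralised to pH 6 by NaOH.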

Row | Molecule | Expt 4-2 % conv [1] [%] | Expt 4-4 % conv [2] [%] | Expt 4-1 % conv [3] [%] | Expt 4-3 % conv [4] [%] | Experiment 5-3 % conv [5] [%] | Experiment 5-1 % conv [6] [%] | Experiment 5-2 % conv [7] [%]
1 | 247 (protein, listed as Arthrobotrys oligospora) MDATTLKEIEETLAQLTLEEKISLLAGKDFWRTVPLPEKQIPSIKVSDGPSGARGDTFSGGQKAAFFPSGILMGATFNPELAYETGELLSEEVRAKSASVLLAPTACCHRSPLGGRNFESYSEDPLLSGKMASGYIRGVQSRGIAATMKHFVANEQETWRLYVDETIDETTLREIYLKPFEIAMREGQPWAIMTAYNIINGVHCDSHPLTLKQVLRGEWNYEGLVMSDWFGCNSMVESLLAGLDLEMPGPARKRPIKEFVEAAEKDESVRKAIDDSARRILTLIAKVGKWKDMTPEAPEYSRNDPETGKLIRRAGGEGTVLLKNEGKTLPLQPGSLKKVAFIGPNAKATVAGGGGSANLEPNYLTQPYETFVTAIKEINGDIEVPWVQGCIIDRWVPNIDVEGGFCRVGGPDSEAGLFLEWFRGYEATGEPVATTVFKTSNAFLWDSRPTSISPSEEFSVRFSGQISVPEDGKYNISLSTITASKLYLNGELLIDNWDFKERGNLMMNVGSEEVVKTIELKKGEWYPILVHNSSIWPKDSPRDPPMEEIGALGIRLGVAPVYDNAVLIAEAADAVKDADAVVIVVGLNNEWESESYDRSDTKLPNNQDDLIEEIAKVNQNVIVVNQSGAPVDMPWAENSNVKAIVQAWYAGQEAGHVIADVLLGKQNPSGKLPLTFPIKVQDNPSYLYFPGRDQKVEYTEKLMVGYRYYDTENVQTRFPFGYGLSYSTFSIGEPSLSTAELTEGQTFTANVDVSNTSNVAGAEVVQLYVKRPASTSSIKRPVKELKGFKKVHLGTGETATANITVDDKSLGIWSTEAGKWVVEAGDYEVLIGTSSVQDELKPAGKITVKAAWSWI | 2.0 | <3 | 18.0 | 2.7 | – | – | –
2 | 208 (protein, listed as Anaerolinea thermophila) MNVHNQDTIEQKISELLSQMTLSEKVSLLSGKDAWRTMPIPRLGIPSITMTDGPHGVRSSYPEAGRKAGPTTCFPTGVSMAATWNTALIEKVGMALAEETRAMDCDILLGPCVNIVRHPLAGRNFESYSEDPYLNGKMGVAWVKGLQSKKVGASLKHFAANNQEFERHRGSSELDERTLREIYLPHFEMVVKEAKPFTVMCAYNRINGVYASQNRHLLREILKEEWGFDGVVVSDWGANHTIFESVENGLDLEMPGPARYYGKLLEDAVHNWQIDEKVIDDAVRRILRILFRAGKFDDPATLPPGSVNTPEHQALALEVAEEAITLLKNEADLLPLDIEKIRTLAVIGPNAAEDRIGGGGSSYVDPPYRVSPLEALRARFGDKIQIEYEKGCDNYHQPPVLGADWLGVNGLKVDFFDNPALQGQPAGTISIPKAEMWMWANSLPASKITSPRFSLRASGSFTPLESGNFTFFLVNTSTCRVFINGNKVFENTSKPKEHRAESEVQFQTTLEEGKSYDLVIEYLKDNDEEFAFWKLACMRVFGPGEDNRIQKAAELAAKSDVALVFIGMPEGFESEGYDRPDMRLPGPQDELVRAVLKANPRTVVILNAGSPVEMPWAEDVPAILEAYYPGQEGGNAVAKILFGEINPSGKLTVTFPRRLEDTPAYINYPGDRKVYYGEGIFVGYRYYEKKKVSPLFPFGHGLSYTTFEYENLTLPSEVNIGESVKVQVTVKNTGKRAGKEVVQLYVGDPESSLVRPPKELKGFAKVELQPGESKTVSFELDERAFAFYDPYQSRWVVEPGEFQILVGSSSQDIRASAVLRMA | 94.0 | <3 | 100.0 | 26.0 | – | – | –
3 | 250 (protein, listed as Modestobacter marinus) MTATTPSDPTALPLEQKVRLLSGQDFWSTPAVAEAGLSSVVLTDGPHGVRRQQGEFDQIGLLESVPATCFPPAVAVGSSWDPEVAERIGAAVGVEARAIGVPVVLGPGVNIKRSPLCGRNFEYYSEDPLLAGVLGAAHVRGQQGEGVGASVKHFAANNQETQRMQVSADVDERTLREVYLPAFERVVTESRPATVMCAYNKVNGVYASQHRWLLTEVLREEWGFRGAVVSDWGAVDDRVAALEAGLDLQMPGDSGAGNALVVEAVRAGVLDEAVVDRSVRRVAALAGLVAEPTAGFDVEAHHALARELAAGCAVLLKNDGGTLPLTAGTRITVVGEFARTPRFQGGGSSHVNATRVDDALTALQGAVEVTFAPGFTLDGSGDAAALREEAVAAARGAEVTVVFAGLAEADESEGFDRTTLDLPAGQVDLIRAVAAVSLRTVVVLSSGSVVSLEGWHDDVDAVLAGFLLGQAGGGALADLLTGAVDPSGRLAETIPLRLQDTPSYLTFPGEQGHARYGEGVMVGYRHYETAEQPVRYPFGHGLSYTSFATTDLQVRTRGADGATATVTVTNTGERAGRHVVQVYVATAAGPVRRPARELRAFTKVSLAAGESATVAFELDRRAFAYWDVREHDWVVAPGEYSVQIGASAADVLDQRTVTLAGDDLVPELTLQSSVAEWFAHPVAGPQLLAGFVAAMPDGAAEMHEGMLQMIGSMPMRRFAADFGSAVPAAELDRLMAAARAAR | 36.0 | <3 | 88.5 | 2.6 | – | – | –
4 | 262 (protein, listed as Modestobacter marinus) MNPASSTRTDTMTDTTARTDSRLTDALAALSLEQKVQLLTGRDFWNTWPIEEIGLRRILVSDGPSGVRGEVWDERDPSLNLPSATALASAWDPDIARRYGAAAAVEARRKGVDVVLGPTINLHRSPLGGRHFEAFSEDPVLTAELAAAYVTGVQDNGVGATPKHYVANDFETDRFTVDVRADERTLRELYLLAFEKAVTEARAWLVMSAYNGINGATATENDLLETPLNSEWGFDGVVVSDWTAVRSLESARSSQDLVMPGPVGPWGDALVEAVRTGAIDESVVDRKVLRILTLAQRVGALEGSPAIDPVWVEDGVALAREAAVEGTVLLENRDELPWDATSLRKVAVIGNNAAAARTQGGGSATVLPEYTVSPLDGVRAALPDAEVSYSLGAVVQDGLVELPLAELTNPVTGGPGLRARFLTADGAELFGEDRRKSVLVYFGGDAPIAAAATYELTARWTPTESQTVRLGFALIGAAQLYVDGELLVESDLQPSGTDLGAAFMNPLTASAEVELVAGKPVDVRLVHDLSAKEGFAAHALFLQLGTEPAEVDEDALIAEAAEAAEAADVVLVVVGTNSIVESEGYDRESLSLPGRQDDLVRAVVAANPRTVVLVNAGAPVLLPWRDDVAALLLGWFGGQEFGNAVADVLLGVAEPGGRLPTTWPAAEADVPVLSCTPVDGVVEYTEGIHIGYRAWLRSGATPAYWFGSGQGYTCVELTGVEAPSRARPGEIVTVSVEVANRGERDGKQVVQVYAEKPDSTVDRPVRWLVGSAPVRVPAGQTAQVEVAVPTRYLAHWAGGWQYEPGVYRLRVGTTAVELPLETTLEVSA | 97.9 | 68.6 | 99.5 | 99.7 | 8.5 | 98.7 | 5.5
